45 variants from the Human Domainome abundance scans (Beltran et al. 2025) can be followed below.

± gives the uncertainty stated by the source.

The chains are these.
B1: LIM and senescent cell antigen-like-containing domain protein 2, residues 13 to 71; numbered along this chain, Q7Z4I7 (parent)
chain: AVCQRCQARFSPAERIVNSNGELYHEHCFVCAQCFRPFPEGLFYEFEGRKYCEHDFQML

The series covers variants of B1. Kind of series: abundance fitness (aPCA) (normalised: wild type 0, dead -1); higher = more abundant; growth selection in yeast, the domain comes from the species named. The note with it: Homo sapiens.
In the case of AVCQCCQARFSPAERIVNSNGELYHEHCFVCAQCFRPFPEGLFYEFEGRKYCEHDFQML, the abundance fitness is -0.379 ± 0.2.

Consider AVCQNCQARFSPAERIVNSNGELYHEHCFVCAQCFRPFPEGLFYEFEGRKYCEHDFQML, for which the abundance fitness is -0.081 ± 0.13. Under AVCQFCQARFSPAERIVNSNGELYHEHCFVCAQCFRPFPEGLFYEFEGRKYCEHDFQML stands -0.347 ± 0.15; under AVCQWCQARFSPAERIVNSNGELYHEHCFVCAQCFRPFPEGLFYEFEGRKYCEHDFQML, -0.184 ± 0.081; under AVCQGCQARFSPAERIVNSNGELYHEHCFVCAQCFRPFPEGLFYEFEGRKYCEHDFQML, 0.231 ± 0.07. The figure for AVCQSCQARFSPAERIVNSNGELYHEHCFVCAQCFRPFPEGLFYEFEGRKYCEHDFQML is 0.209 ± 0.062; for AVCQQCQARFSPAERIVNSNGELYHEHCFVCAQCFRPFPEGLFYEFEGRKYCEHDFQML it is 0.066 ± 0.073. Turning to TVCQRCQARFSPAERIVNSNGELYHEHCFVCAQCFRPFPEGLFYEFEGRKYCEHDFQML, the abundance fitness was 0.176 ± 0.16. The figure for DVCQRCQARFSPAERIVNSNGELYHEHCFVCAQCFRPFPEGLFYEFEGRKYCEHDFQML is -0.256 ± 0.21.

For the variant QVCQRCQARFSPAERIVNSNGELYHEHCFVCAQCFRPFPEGLFYEFEGRKYCEHDFQML, the abundance fitness is -0.313 ± 0.18. The figure for RVCQRCQARFSPAERIVNSNGELYHEHCFVCAQCFRPFPEGLFYEFEGRKYCEHDFQML is -0.573 ± 0.22; for GVCQRCQARFSPAERIVNSNGELYHEHCFVCAQCFRPFPEGLFYEFEGRKYCEHDFQML it is -0.135 ± 0.081; for LVCQRCQARFSPAERIVNSNGELYHEHCFVCAQCFRPFPEGLFYEFEGRKYCEHDFQML it is -0.149 ± 0.15. The figure for WVCQRCQARFSPAERIVNSNGELYHEHCFVCAQCFRPFPEGLFYEFEGRKYCEHDFQML is -0.327 ± 0.47. Under PVCQRCQARFSPAERIVNSNGELYHEHCFVCAQCFRPFPEGLFYEFEGRKYCEHDFQML stands -0.739 ± 0.32; under VVCQRCQARFSPAERIVNSNGELYHEHCFVCAQCFRPFPEGLFYEFEGRKYCEHDFQML, -0.058 ± 0.069. Consider NVCQRCQARFSPAERIVNSNGELYHEHCFVCAQCFRPFPEGLFYEFEGRKYCEHDFQML, for which the abundance fitness is -0.481 ± 0.41.

Take EVCQRCQARFSPAERIVNSNGELYHEHCFVCAQCFRPFPEGLFYEFEGRKYCEHDFQML: the abundance fitness was found to be 0.161 ± 0.11. Regarding SVCQRCQARFSPAERIVNSNGELYHEHCFVCAQCFRPFPEGLFYEFEGRKYCEHDFQML, the abundance fitness was found to be 0.002 ± 0.12. Under KVCQRCQARFSPAERIVNSNGELYHEHCFVCAQCFRPFPEGLFYEFEGRKYCEHDFQML stands 0.066 ± 0.15; under AVCWRCQARFSPAERIVNSNGELYHEHCFVCAQCFRPFPEGLFYEFEGRKYCEHDFQML, -0.528 ± 0.1; under AVCMRCQARFSPAERIVNSNGELYHEHCFVCAQCFRPFPEGLFYEFEGRKYCEHDFQML, 0.209 ± 0.1. As to AVCCRCQARFSPAERIVNSNGELYHEHCFVCAQCFRPFPEGLFYEFEGRKYCEHDFQML, the abundance fitness stood at 0.065 ± 0.11. Under AVCVRCQARFSPAERIVNSNGELYHEHCFVCAQCFRPFPEGLFYEFEGRKYCEHDFQML stands -0.228 ± 0.068; under AVCPRCQARFSPAERIVNSNGELYHEHCFVCAQCFRPFPEGLFYEFEGRKYCEHDFQML, -0.145 ± 0.11; under AVCNRCQARFSPAERIVNSNGELYHEHCFVCAQCFRPFPEGLFYEFEGRKYCEHDFQML, 0.679 ± 0.16. The figure for AVCDRCQARFSPAERIVNSNGELYHEHCFVCAQCFRPFPEGLFYEFEGRKYCEHDFQML is 0.357 ± 0.11; for AVCYRCQARFSPAERIVNSNGELYHEHCFVCAQCFRPFPEGLFYEFEGRKYCEHDFQML it is 0.086 ± 0.11. Under AVCKRCQARFSPAERIVNSNGELYHEHCFVCAQCFRPFPEGLFYEFEGRKYCEHDFQML stands -0.007 ± 0.091; under AVCFRCQARFSPAERIVNSNGELYHEHCFVCAQCFRPFPEGLFYEFEGRKYCEHDFQML, -0.161 ± 0.17. Turning to AVCRRCQARFSPAERIVNSNGELYHEHCFVCAQCFRPFPEGLFYEFEGRKYCEHDFQML, the abundance fitness is -0.073 ± 0.064. The figure for AVCLRCQARFSPAERIVNSNGELYHEHCFVCAQCFRPFPEGLFYEFEGRKYCEHDFQML is 0.184 ± 0.059; for AVCHRCQARFSPAERIVNSNGELYHEHCFVCAQCFRPFPEGLFYEFEGRKYCEHDFQML it is 0.035 ± 0.13; for AVCERCQARFSPAERIVNSNGELYHEHCFVCAQCFRPFPEGLFYEFEGRKYCEHDFQML it is -0.133 ± 0.082. The figure for AVCGRCQARFSPAERIVNSNGELYHEHCFVCAQCFRPFPEGLFYEFEGRKYCEHDFQML is -0.127 ± 0.071; for AVCTRCQARFSPAERIVNSNGELYHEHCFVCAQCFRPFPEGLFYEFEGRKYCEHDFQML it is 0.051 ± 0.078; for AVCSRCQARFSPAERIVNSNGELYHEHCFVCAQCFRPFPEGLFYEFEGRKYCEHDFQML it is 0.029 ± 0.064. The figure for AVCIRCQARFSPAERIVNSNGELYHEHCFVCAQCFRPFPEGLFYEFEGRKYCEHDFQML is -0.216 ± 0.18. For the variant AVCQREQARFSPAERIVNSNGELYHEHCFVCAQCFRPFPEGLFYEFEGRKYCEHDFQML, the abundance fitness is -0.968 ± 0.24.

In the case of AVCQRFQARFSPAERIVNSNGELYHEHCFVCAQCFRPFPEGLFYEFEGRKYCEHDFQML, the abundance fitness is -0.677 ± 0.12.

In the case of AVCQRGQARFSPAERIVNSNGELYHEHCFVCAQCFRPFPEGLFYEFEGRKYCEHDFQML, the abundance fitness was -0.757 ± 0.1. The figure for AVCQRIQARFSPAERIVNSNGELYHEHCFVCAQCFRPFPEGLFYEFEGRKYCEHDFQML is -1.16 ± 0.36; for AVCQRHQARFSPAERIVNSNGELYHEHCFVCAQCFRPFPEGLFYEFEGRKYCEHDFQML it is -1.08 ± 0.31.

In the case of AVCQRAQARFSPAERIVNSNGELYHEHCFVCAQCFRPFPEGLFYEFEGRKYCEHDFQML, the abundance fitness was -0.84 ± 0.18. Turning to AVCQRDQARFSPAERIVNSNGELYHEHCFVCAQCFRPFPEGLFYEFEGRKYCEHDFQML, the abundance fitness is -1.03 ± 0.29.
